Here are results for two molecules from article PMC7082061 (PLoS Pathogens, 2020).

Data set [1] addresses VSV Gth (aa residues 1-422, VSV G fragment that was previously crystallized) (vesicular stomatitis virus). The experiment in a line: negative staining electron microscopy.
Data set [2] deals with the molecule itself. As to the kind of experiment: negative staining electron microscopy.

In data set [1], “VSV Gth (aa residues 1-422, VSV G fragment that was previously crystallized) (domain or fragment)” had a stoichiometry N of 3.

B1: MOKV G_(1-436)WT (wild type Mokola virus glycoprotein G ectodomain) (domain or fragment)
chain: EFPLYTIPEKIEKWTPIDMIHLSCPNNLLSEEEGCNAESSFTYFELKSGYLAHQKVPGFTCTGVVNEAETYTNFVGYVTTTFKRKHFRPTVAACRDAYNWKVSGDPRYEESLHTPYPDSSWLRTVTTTKESLLIISPSIVEMDIYGRTLHSPMFPSGVCSNVYPSVPSCETNHDYTLWLPEDPSLSLVCDIFTSSNGKKAMNGSRICGFKDERGFYRSLKGACKLTLCGRPGIRLFDGTWVSFTKPDVHVWCTPNQLINIHNDRLDEIEHLIVEDIIKKREECLDTLETILMSQSVSFRRLSHFRKLVPGYGKAYTILNGSLMETNVYYKRVDKWADILPSKGCLKVGQQCMEPVKGVLFNGIIKGPDGQILIPEMQSEQLKQHMDLLKAAVFPLRHPLISREAVFKKDGDADDFVDLHMPDVHKSVSDVDLGLPH
In the case of B1, in data set [2], the “stoichiometry N” value was determined as 3.

The term stoichiometry N denotes the number of molecules, sites or subunits per partner or assembly.
